B1: TRIM29 (parent)
chain: FAEKGELRKSIFSESRKPTVSIME
B2: KLHDC10 (parent)
chain: FGGTGIPFGESNGNGVHVCNVKYK

Variants of: B1
Assay: protein stability index of a GFP-peptide fusion (GPS, HEK-293T) (PSI 1-6); higher = more stable
Conditions: c terminus: a fixed tail appended
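Note: lentivirally expressed fusions sorted by FACS into six bins by GFP to DsRed ratio, PSI derived from sequencing read proportions per bin multiplied by bin number.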

Variant	protein stability index
FAEKGEHRKSIFSESRKPTVSIME [L7H]	2.44
FAEKGEIRKSIFSESRKPTVSIME [L7I]	2.18
FAEKGEPRKSIFSESRKPTVSIME [L7P]	2.52
FAEKGEFRKSIFSESRKPTVSIME [L7F]	2.21
FAEKGEDRKSIFSESRKPTVSIME [L7D]	1.78
FAEKGEKRKSIFSESRKPTVSIME [L7K]	1.7
FAEKGEERKSIFSESRKPTVSIME [L7E]	3.15
FAEKGESRKSIFSESRKPTVSIME [L7S]	2.22
FAEKGEGRKSIFSESRKPTVSIME [L7G]	1.46
FAEKGEQRKSIFSESRKPTVSIME [L7Q]	2.31
FAEKGETRKSIFSESRKPTVSIME [L7T]	2.32
FAEKGEARKSIFSESRKPTVSIME [L7A]	2.25
FAEKGERRKSIFSESRKPTVSIME [L7R]	1.82
FAEKGEYRKSIFSESRKPTVSIME [L7Y]	2.08
FAEKGENRKSIFSESRKPTVSIME [L7N]	1.55
FGEKGELRKSIFSESRKPTVSIME [A2G]	2.06
FQEKGELRKSIFSESRKPTVSIME [A2Q]	3.44
FIEKGELRKSIFSESRKPTVSIME [A2I]	1.89
FEEKGELRKSIFSESRKPTVSIME [A2E]	3.35
FHEKGELRKSIFSESRKPTVSIME [A2H]	2.07
FTEKGELRKSIFSESRKPTVSIME [A2T]	2.36
FWEKGELRKSIFSESRKPTVSIME [A2W]	2.74
FREKGELRKSIFSESRKPTVSIME [A2R]	3.42
FNEKGELRKSIFSESRKPTVSIME [A2N]	2.91
FLEKGELRKSIFSESRKPTVSIME [A2L]	2.38
FFEKGELRKSIFSESRKPTVSIME [A2F]	2.52
FSEKGELRKSIFSESRKPTVSIME [A2S]	2.53

Variant	protein stability index
FVEKGELRKSIFSESRKPTVSIME [A2V]	2.1
FPEKGELRKSIFSESRKPTVSIME [A2P]	2.59
FMEKGELRKSIFSESRKPTVSIME [A2M]	3.21
FKEKGELRKSIFSESRKPTVSIME [A2K]	3.44
FDEKGELRKSIFSESRKPTVSIME [A2D]	3.76
FYEKGELRKSIFSESRKPTVSIME [A2Y]	2.88
FCEKGELRKSIFSESRKPTVSIME [A2C]	1.66
FAIKGELRKSIFSESRKPTVSIME [E3I]	2.43
FASKGELRKSIFSESRKPTVSIME [E3S]	3.11
FADKGELRKSIFSESRKPTVSIME [E3D]	1.9
FACKGELRKSIFSESRKPTVSIME [E3C]	1.92
FAHKGELRKSIFSESRKPTVSIME [E3H]	1.66
FAKKGELRKSIFSESRKPTVSIME [E3K]	2.29
FAGKGELRKSIFSESRKPTVSIME [E3G]	2.95
FAFKGELRKSIFSESRKPTVSIME [E3F]	1.42
FANKGELRKSIFSESRKPTVSIME [E3N]	2.29
FARKGELRKSIFSESRKPTVSIME [E3R]	2.27
FAYKGELRKSIFSESRKPTVSIME [E3Y]	1.88
FAPKGELRKSIFSESRKPTVSIME [E3P]	2.79
FATKGELRKSIFSESRKPTVSIME [E3T]	2.59
FAVKGELRKSIFSESRKPTVSIME [E3V]	1.15
FAWKGELRKSIFSESRKPTVSIME [E3W]	1.83
FAQKGELRKSIFSESRKPTVSIME [E3Q]	2.05
FAAKGELRKSIFSESRKPTVSIME [E3A]	3.08
FALKGELRKSIFSESRKPTVSIME [E3L]	1.04
FAMKGELRKSIFSESRKPTVSIME [E3M]	2.09

Variants of: B2
Assay: as above
Conditions: c terminus: a fixed tail appended

Variant	protein stability index
FGGTGIPFGENNGNGVHVCNVKYK [S11N]	1.91
FGGTGIPFGELNGNGVHVCNVKYK [S11L]	1.62
FGGTGIPFGEGNGNGVHVCNVKYK [S11G]	1.54
FGGTGIPFGEINGNGVHVCNVKYK [S11I]	2.73
FGGTGIPFGEANGNGVHVCNVKYK [S11A]	1.97
FGGTGIPFGKSNGNGVHVCNVKYK [E10K]	1.46
FGGTGIPFGPSNGNGVHVCNVKYK [E10P]	1.95
FGGTGIPFGYSNGNGVHVCNVKYK [E10Y]	1.45
FGGCGIPFGESNGNGVHVCNVKYK [T4C]	1.94
FGGMGIPFGESNGNGVHVCNVKYK [T4M]	1.65
FGGVGIPFGESNGNGVHVCNVKYK [T4V]	2.5
YGGTGIPFGESNGNGVHVCNVKYK [F1Y]	2.23
SGGTGIPFGESNGNGVHVCNVKYK [F1S]	4.25
RGGTGIPFGESNGNGVHVCNVKYK [F1R]	3.54
VGGTGIPFGESNGNGVHVCNVKYK [F1V]	3.79
LGGTGIPFGESNGNGVHVCNVKYK [F1L]	4.04
FGGTGIPFGESNGNGVHVCNVKYF [K24F]	1
FGGTGIPFGESNGNPVHVCNVKYK [G15P]	2.06
FGGTGIPFGESNGNGVDVCNVKYK [H17D]	2.54
FGGTGSPFGESNGNGVHVCNVKYK [I6S]	1.88
FGGTGRPFGESNGNGVHVCNVKYK [I6R]	1.72

Variant	protein stability index
FGGTGNPFGESNGNGVHVCNVKYK [I6N]	2.07
FGGTGIQFGESNGNGVHVCNVKYK [P7Q]	2.06
FGGTGIGFGESNGNGVHVCNVKYK [P7G]	2.23
FGGTGIPFGESNGNGVHFCNVKYK [V18F]	2.15
FGGTGIPFGESNGNGVHACNVKYK [V18A]	2.1
FGGTGIPWGESNGNGVHVCNVKYK [F8W]	1.98
FGGTGIPFGESNGNGQHVCNVKYK [V16Q]	2.04
FGGTGIPFGESNGNGVHVCWVKYK [N20W]	2.83
FGGTGIPFGESNGNGVHVCQVKYK [N20Q]	1.87
FGRTGIPFGESNGNGVHVCNVKYK [G3R]	2.77
FGSTGIPFGESNGNGVHVCNVKYK [G3S]	2.61
FGGTGIPFGESNGMGVHVCNVKYK [N14M]	1.99
FGGTGIPFGESNGNGVHVCNVLYK [K22L]	1.29
FGGTGIPFGESNGNGVHVCNVCYK [K22C]	1.24
FGGTGIPFGESNGNGVHVCNVSYK [K22S]	1.29
FGGTGIPFGESNGNGVHVCNFKYK [V21F]	1.82
FGGTGIPFGESNGNGVHVCNLKYK [V21L]	1.58
FGGTGIPFGESNGNGVHVCNVKIK [Y23I]	2.38
FGGTGIPFGESNGNGVHVCNVKAK [Y23A]	2.76
FGGTGIPFGESNGNGVHVCNVKGK [Y23G]	2.04

From the supplement of paper PMC10567573
